Laboratory results taken from publication PMC9781609 (Pharmaceutics, 2022).

Legend:
in vivo = conditions: male, athymic nude, mouse, total radioactivity
Experimental: All animal procedures were approved by the University of Alabama at Birmingham IACUC, animal protocol number IACUC-22618. Male athymic nude mice (Charles River, Wilmington, MA, USA) were allowed to acclimate for at least 72 h before any procedures were performed. For tumor implantation, mice were subcutaneously injected with 300,000 HT29 cells 3 weeks before imaging. […] Mice were imaged on a GNEXT microPET/CT (Sophie, Springfield, VA, USA). After the last imaging timepoint, mice were euthanized and organs were taken for biodistribution. Organ weights and radioactive counting were collected on a Hidex gamma counter (Lablogic, Clair-Mel City, FL, USA). Images were processed and SUVs were calculated using VivoQuant software (Invicro, Boston, MA, USA).

[1] = endogenous peptide; cited from earlier work
Experimental: Neurotensin receptor imaging has emerged as a promising target for imaging and therapy. The endogenous neurotensin peptide has a short half-life in blood (<6 min), limiting its direct radiolabeling and use. Most developments in neurotensin receptor imaging have been focused on increasing serum stability and improving specificity for NTSR1 [1]. Previously, neurotensin receptor binding peptides have been investigated as imaging and therapeutic agents when radiolabeled with technetium-99m, indium-111, gallium-68, copper-64, actinium-225, and leutetium-177 [10, 11, 12, 13]. Specif ...

CC(=O)N[C@@H](CCCCNC(=O)CN1CCN(CC(=O)O)CCN(CC(=O)O)CC1)C(=O)N1CCC[C@H]1C(=O)N(C)[C@@H](CCCNC(=N)N)C(=O)N[C@@H](CCCNC(=N)N)C(=O)N1CCC[C@H]1C(=O)N[C@@H](Cc1ccc(O)cc1)C(=O)N[C@H](C(=O)N[C@@H](CC(C)C)C(=O)O)C(C)(C)C [[^64Cu] Cu-NOTA-NT-20.3, metal not drawn]
SUV at 1 h (in vivo; liver SUV): 0.123 ± 0.029 SUV
SUV at 4 h (in vivo; liver SUV): 0.178 ± 0.042 SUV
SUV at 24 h (in vivo; liver SUV): 0.168 ± 0.056 SUV

neurotensin peptide: 13-amino-acid peptide which binds to neurotensin receptors 1–3
half-life in blood [1]: < 6 min

CC(=O)N[C@@H](CCCCNC(=O)CN1CCN(CC(=O)O)CCN(CC(=O)O)CC1)C(=O)N1CCC[C@H]1C(=O)N(C)[C@@H](CCCNC(=N)N)C(=O)N[C@@H](CCCNC(=N)N)C(=O)N1CCC[C@H]1C(=O)N[C@@H](Cc1ccc(O)cc1)C(=O)N[C@H](C(=O)N[C@@H](CC(C)C)C(=O)O)C(C)(C)C [[^55Co] Co-NOTA-NT-20.3]
SUV at 1 h (in vivo; 1 ug, heart SUV): 0.033 ± 0.002 SUV
SUV at 4 h (in vivo; 1 ug, heart SUV): 0.015 ± 0.002 SUV
SUV at 24 h (in vivo; 1 ug, heart SUV): 0.004 ± 0.001 SUV
